{"source": "paper PMC8914023", "key": {"[1]": {"biological_target": "F-actin (rabbit muscle actin filaments) (rabbit) (UniProt P68135)", "test": "SPR"}, "[2]": {"biological_target": "EhP3 (Entamoeba histolytica 14-3-3 protein isoform 3) (Entamoeba histolytica)", "sequence (C4M0F4 whole entry, canonical isoform)": "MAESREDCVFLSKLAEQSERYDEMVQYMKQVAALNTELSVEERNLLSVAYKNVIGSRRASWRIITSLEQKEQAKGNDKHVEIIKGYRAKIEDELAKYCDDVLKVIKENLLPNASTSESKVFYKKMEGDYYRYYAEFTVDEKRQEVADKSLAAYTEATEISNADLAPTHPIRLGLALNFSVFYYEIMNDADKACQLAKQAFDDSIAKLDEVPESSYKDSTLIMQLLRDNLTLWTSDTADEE", "test": "SPR; Autolab ESPIRIT; EhP3 immobilised; EhActo flowed at increasing concentrations; 10 mM HEPES, 0.2 mM calcium acetate, 0.005% Triton-X100; 25°C"}}}
{"substance": "Entamoeba histolytica actophorin (EhActo) (from UniProt C4LVG4 1-138) (natural protein)", "values": [{"measurement": "Kd", "setting": "[1]", "value": 0.249, "unit": "µM"}, {"measurement": "Kd", "setting": "[2]", "value": 1, "unit": "µM"}]}
